Test results reported in publication PMC12175530.

Legend:
[1] = molecular target: T1, EseE-His6 (Edwardsiella piscicida) (UniProt A0AAU8P1U3); test: EMSA; settings: 20 mM Tris-HCl pH 7.5, 50 mM MgCl2, 5% glycerol, 20 uL, 2 h at 25 C
T1 sequence: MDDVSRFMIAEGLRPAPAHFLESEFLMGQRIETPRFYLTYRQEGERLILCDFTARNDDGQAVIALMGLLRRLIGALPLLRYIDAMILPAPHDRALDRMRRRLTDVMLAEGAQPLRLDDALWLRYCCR

[2] = molecular target: T2, EsrB-His6 (Edwardsiella piscicida) (UniProt A0AAU8P338); test: EMSA; settings: 20 mM Tris-HCl pH 7.5, 50 mM MgCl2, 5% glycerol, 20 uL, 2 h at 25 C
T2 sequence: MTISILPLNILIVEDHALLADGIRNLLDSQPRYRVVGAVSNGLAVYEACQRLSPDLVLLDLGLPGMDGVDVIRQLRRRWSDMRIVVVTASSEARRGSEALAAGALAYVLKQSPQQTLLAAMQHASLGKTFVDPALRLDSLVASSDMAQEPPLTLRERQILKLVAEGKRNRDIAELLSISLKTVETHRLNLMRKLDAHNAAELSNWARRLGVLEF

Q: Which binding [1] does the source give for “GCCCGAACACCCGAGAAAAACCAACGTAACTTCAGGTAATTACCCGATATCTTTCGCGCGGGTTCAGCACCCAGAATGGGCCGGGGAAAAAGAGTTCGTCTCCCGATAACCAAACAGCAAACGTTATGCAGCTTCTCGAAAGTTCGCCCGCTAACGGCGTTCTAGCATCACCTCATCGGTAGTCAATAGGAGGTTTCACT (double strand) [escC -200 to -1]” here?
A: binds

Q: What about the binding [2] of the same sequence?
A: binds
